Results on 3 substances are retold here after US12697402B2, “Detection of colonic neoplasia in vivo using near-infrared peptide targeted against overexpressed cMet” (THE REGENTS OF THE UNIVERSITY OF MICHIGAN, priority 2019, dated 2026).

In test [1] the target is T1, cMet (HT29 cells) (Homo sapiens, UniProt P08581). The experiment in a line: Competition for peptide binding with unlabeled peptides. The arrangement: endogenous in cells; host or cells: HT29 (cMet+), SW480 (cMet-), HT29 with siRNA knockdown. The conditions noted are these: unlabeled peptide 0-400 μM, 5 μM QQT*-Cy5.5. On the procedure: (§1) We used a competition assay between labeled QQT*-Cy5.5 and either unlabeled QQT* or recombinant human hepatocyte growth factor (HGF, […], R&D) to validate the specific binding of QQT**-Cy5.5 to HT29 cells. Approximately 10^3 HT29 cells were grown to about 70% confluence on coverslips in triplicate. Unlabeled QQT* and either TLQ* peptide at 0, 25, 50, 100, 200 and 400 μM, or HGF at 0, 5, 10, 25, 50 or 100 ng/mL, were first added and incubated with the cells for 30 min (i.e., minutes) at 4° C. The cells were washed with 1×PBS three times and then incubated with 5 μM QQT*-Cy5.5 for another 30 min at 4° C. The cells were washed three times with 1×PBS and then fixed with 4% PFA for 10 min. The cells were washed with 1×PBS and mounted with ProLong Gold reagent containing DAPI (Invitrogen). Confocal fluorescence images were collected at each concentration using a 63× objective (Leica SP5 Inverted 2-Photon FLIM Confocal), and intensities from five cells in three independent images were quantified using custom Matlab (Mathworks, Natick, MA) software.

Test [2] deals with flat and polyploid colonic adenomas. The experiment in a line: In vivo endoscopic imaging in CPC;Apc mice. Conditions: CPC;Apc mouse; topical / intra-rectal, 100 μM, 5 min incubation. On the procedure:
A CPC;Apc mouse model that can develop spontaneous adenomas in distal colon epithelium^44 was also used. Under the control of the Cdx2 promoter (CDX2P-9.5NLS-Cre), Cre recombinase can sporadically delete the adenomatous polyposis coli (APC) allele, resulting in polyploid colonic adenomas or flat lesions. We collected images from mice (n=8) that ranged in age from 7 to 10 months.
In vivo imaging was performed with approval of the University of Michigan Committee on the Use and Care of Animals. CPC;Apc mice were used for in vivo imaging. […]
(§2) A rigid small animal endoscope (Karl Sorz Veterinary Endoscopy) was inserted into the rectum (Liu et al., Gut 62:395-403 (2013)) and used to image the distal colon^45. […] The distance between the endoscope tip and the anus, and the clockwise location of polyps, were recorded. […] A ratio of the fluorescence and reflectance images was determined to correct for differences in distance and geometry over the image field-of-view (FOV) (Joshi et al., Endoscopy 48:A1-A13 (2016)). […]
The mean fluorescence intensity was used to calculate the target-to-background (T/B) ratios. Images were processed and analyzed using custom software in Matlab (Mathworks) (Joshi et al., Gastroenterology 152:1002-1013 e1009 (2017)). Matlab software was used to quantify the fluorescence intensity. […]

Test [3] deals with T2, cMet (Homo sapiens, UniProt P08581). The test can be described thus: siRNA knockdown of cMet in HT29 cells, binding by confocal microscopy. It is filed as cell-based. On the procedure:
(§3) HT29, SW480, S114 and NIH3T3 cells were inoculated in 12-well cell culture plates with circle glass coverslips to about 80% confluence. The cells were blocked with 1×PBS plus 2% BSA for 1 hour at 4° C., then were incubated with 5 μM peptides for 10 min at RT in the dark, washed thrice, and fixed with 4% PFA for 5 min, washed with 1×PBS, then mounted on glass slides with ProLong Gold reagent containing DAPI (Invitrogen, Waltham, MA). As positive control, after blocking with 2% BSA for 1 hour at 4° C., A 1:3000 dilution of primary monoclonal rabbit anti-cMet antibody (Cell Signaling Technology, #8198) was incubated with cells overnight at 4° C. Afterward, the cells were washed thrice with 1×PBS and further incubated with a 1:500 dilution of AF488-labeled secondary goat ant-rabbit immunoglobulin G antibody (Life Technologies, #A-11029) for 1 hour at RT, washed thrice, and then mounted on glass slides with ProLong Gold reagent containing DAPI. Confocal fluorescence images were collected using a 63× oil-immersion objective (Leica SP5 Inverted 2-Photon FLIM Confocal). Fluorescence intensities from five cells in two independent images were quantified using custom Matlab (Mathworks) software.
We knocked down cMet protein levels with siRNAs and then evaluated the binding of QQT*-Cy5.5 and TLQ*-Cy5.5 to the surface of si-cMet-transfected HT29 cells to validate specific peptide binding. We used siRNA1 (SASI_Hs01_00133002, Sigma) for HT29, siRNA2 (SASI_WI_00000001, Sigma) for S114, and MISSION® siRNA #1 Universal Negative Control (SIC001, Sigma) for a negative control. We transfected cells with Lipofectamine 2000 (11668027, Invitrogen) per manufacturer instructions. Knockdown of cMet was confirmed by Western blot (FIG. 18). The cells were incubated with 5 μM peptide for 5 min at RT (i.e., room temperature), and then fixed and mounted on glass slides with ProLong Gold reagent containing DAPI, as previous described. […] Confocal fluorescence images were collected using a 63× oil-immersion objective (Leica SP5 Inverted 2-Photon FLIM Confocal).

The target in test [4] is T2, cMet. The experiment in a line: Confocal microscopy of binding to S114 (cMet+) versus NIH3T3 (cMet−) cells. In kind it is cell-based, mouse. The arrangement: expressed in transfected cells; host or cells: S114 (NIH 3T3 mouse fibroblasts transformed with human HGF/SF and Met); NIH3T3 as cMet- control. Conditions: 5 μM peptide. The source says:
Human CRC cell lines HT29, SW480, CCD841 and mouse embryonic fibroblast cell line NIH 3T3 were obtained from the American Type Culture Collection (ATCC, Manassas, VA). The S114 cell line comprised NIH 3T3 cells transformed with human HGF/SF and Met and expressed cMet. We used McCoy's 5A Medium (Gibco) for culturing HT29 cells and Dulbecco's Modified Eagle Medium (Gibco) was used to culture SW480, NIH3T3 and S114 cells. Eagle's Minimum Essential Medium (Lonza) was used for CCD841 cells. All cells were cultured at 37° C. in 5% CO2, and supplemented with 10% fetal bovine serum (FBS). The cells were passaged using 0.25% trypsin containing EDTA (Mediatech, Manassas, VA). Cell numbers were quantitated on a hemocytometer. Peptide synthesis reagents were obtained from Anaspec (Anaspec, Fremont, CA) or AAPPTEC (AAPPTEC, Louisville, KY), were of the highest grade available (>99% purity), and were used without further purification. […]
HT29, SW480, S114 and NIH3T3 cells were inoculated in 12-well cell culture plates with circle glass coverslips to about 80% confluence. […] Confocal fluorescence images were collected using a 63× oil-immersion objective (Leica SP5 Inverted 2-Photon FLIM Confocal). Fluorescence intensities from five cells in two independent images were quantified using custom Matlab (Mathworks) software.

Test [5] has as its target T2, cMet. The experiment in a line: Confocal microscopy of binding to HT29 (cMet+) versus SW480 (cMet−) cells. It is filed as cell-based. On the procedure:
as §3

The test system of test [6] is human colon organoids (adenoma, SSA, normal). The experiment in a line: In vivo endoscopic imaging of patient-derived colon organoids implanted in NOD/SCID mice. Conditions: NOD/SCID mouse; topical administration. Here is the method: Acute colitis was induced in 8-week-old NOD.Cg-Prkdcscid Il2rgtm1Wjl/SzJ mice (005557, The Jackson Laboratory)^40,41 by feeding them with 3.0% DSS (molecular weight 40,000; Cat #AAJ6360622; Alfa Aesar) dissolved in drinking water for 5 days (d). At 6 d, the donor organoids were released from the type I collagen gel, dissociated by EDTA, and washed with BSA-containing PBS as with the passage procedure. Approximately 2.5-5E5 cell aggregates in 200 μL were transplanted per mouse as previously described^42,43. Organoids were instilled into colonic lumen as a suspension by using a syringe and a thin flexible catheter 4 cm in length and 2 mm in diameter. The anal verge was glued for 6 hours after infusion to prevent luminal contents from being excreted immediately, then glue were removed by Ethanol. Mice were maintained as usual after the transplantation. The mice were housed in pathogen-free conditions and supplied water ad libitum under controlled conditions of humidity (50±10%), light (12/12 hour light/dark cycle) and temperature (25° C.). […]
as §2
The mean fluorescence intensity was used to calculate the target-to-background (T/B) ratios. Images were processed and analyzed using custom software in Matlab (Mathworks) (Joshi et al., Gastroenterology 152:1002-1013 e1009 (2017)). Matlab software was used to quantify the fluorescence intensity. The fluorescence intensity of regions of interest (ROI) was corrected by taking the ratio of fluorescence to reflectance, the fluorescence of interested region was taken as target (T), and adjacent mouse normal colon region with equal area was picked for use as background (B)^46. […]

In test [7] the target is T1, cMet (HT29 cells). The test can be described thus: Competition for peptide binding with HGF. Set-up: endogenous in cells; host or cells: HT29 (cMet+), SW480 (cMet-), HT29 with siRNA knockdown. The conditions noted are these: HGF 0 to 100 ng/mL; confocal microscopy. On the procedure: as §1
Test [8] deals with phosphorylation of cMet, AKT and ERK1/2. The test can be described thus: Effect of peptide on cell signaling (Western blot). The conditions noted are these: HT29 cells; 10, 30, 120 min; HGF 25 ng/mL; peptide 5 or 100 μM. It is filed as cell-based, human. On the procedure:
HT29 cells were treated with serum-free medium overnight for starvation before incubation with hHGF (hHGF, 294-HG-005, R&D) or peptides. Recombinant Human HGF Protein was added to HT29 cells at concentrations of 25 ng/ml for 10, 30, or 120 min in separate wells. QQT*-Cy5.5 and TLQ*-Cy5.5 were added at concentrations of 5 or 100 μM for 10, 30, and 120 min. Peptides were added at concentrations of 5 and 100 μM for 10, 30, or 120 min. Cells were then washed with 1×PBS and lysed with Pierce RIPA buffer containing Halt Phosphatase Inhibitor Cocktail (Thermo Fisher) and Halt Protease Inhibitor Cocktail (Thermo Fisher). Protein contents were quantified by Bicinchoninic Acid Assay (BCA). Anti-cMet antibody (Cell Signaling, #8198), phospho-cMet (Tyr1234/1235) antibody (Cell Signaling, #3077), anti-AKT antibody (Cell Signaling, #4691), anti-phospho-AKT antibody (Cell Signaling, #9271), anti-ERK1/2 antibody (Abcam, #ab17942), anti-phospho-ERK1/2 antibody (Abcam, #ab50011), and anti-tubulin antibody (Invitrogen, #32-2600) were used per manufacturer's instructions.
(In general: A western blot detects proteins with antibodies after separation by electrophoresis.)

The target in another test is T3, mouse cMet-ECD (Mus musculus, UniProt P16056).
T3 construct: incubated with purified mouse cMet-ECD protein (50622-M08H, Sino Biological); purchased Sino Biological 50622-M08H
The test can be described thus: Pull-down assay. The conditions noted are these: peptide immobilized on EHS beads. It is filed as binding. On the procedure:
Interactions between peptide and mouse cMet were evaluated using a pull-down assay (Paul et al., Methods 54:387-395 (2011)). Peptides were immobilized on EHS active beads (17-0906-01, GE), and incubated with purified mouse cMet-ECD protein (50622-M08H, Sino Biological). After washing, bound proteins were detected by Western blot (FIG. 18).

Where [9] appears, read: confocal microscopy, 5 μM peptide.

Entries after “also recorded” stand apart in the source; their conditions may differ. Ends that are not written are not given here.

T1 sequence (P08581 25-1390): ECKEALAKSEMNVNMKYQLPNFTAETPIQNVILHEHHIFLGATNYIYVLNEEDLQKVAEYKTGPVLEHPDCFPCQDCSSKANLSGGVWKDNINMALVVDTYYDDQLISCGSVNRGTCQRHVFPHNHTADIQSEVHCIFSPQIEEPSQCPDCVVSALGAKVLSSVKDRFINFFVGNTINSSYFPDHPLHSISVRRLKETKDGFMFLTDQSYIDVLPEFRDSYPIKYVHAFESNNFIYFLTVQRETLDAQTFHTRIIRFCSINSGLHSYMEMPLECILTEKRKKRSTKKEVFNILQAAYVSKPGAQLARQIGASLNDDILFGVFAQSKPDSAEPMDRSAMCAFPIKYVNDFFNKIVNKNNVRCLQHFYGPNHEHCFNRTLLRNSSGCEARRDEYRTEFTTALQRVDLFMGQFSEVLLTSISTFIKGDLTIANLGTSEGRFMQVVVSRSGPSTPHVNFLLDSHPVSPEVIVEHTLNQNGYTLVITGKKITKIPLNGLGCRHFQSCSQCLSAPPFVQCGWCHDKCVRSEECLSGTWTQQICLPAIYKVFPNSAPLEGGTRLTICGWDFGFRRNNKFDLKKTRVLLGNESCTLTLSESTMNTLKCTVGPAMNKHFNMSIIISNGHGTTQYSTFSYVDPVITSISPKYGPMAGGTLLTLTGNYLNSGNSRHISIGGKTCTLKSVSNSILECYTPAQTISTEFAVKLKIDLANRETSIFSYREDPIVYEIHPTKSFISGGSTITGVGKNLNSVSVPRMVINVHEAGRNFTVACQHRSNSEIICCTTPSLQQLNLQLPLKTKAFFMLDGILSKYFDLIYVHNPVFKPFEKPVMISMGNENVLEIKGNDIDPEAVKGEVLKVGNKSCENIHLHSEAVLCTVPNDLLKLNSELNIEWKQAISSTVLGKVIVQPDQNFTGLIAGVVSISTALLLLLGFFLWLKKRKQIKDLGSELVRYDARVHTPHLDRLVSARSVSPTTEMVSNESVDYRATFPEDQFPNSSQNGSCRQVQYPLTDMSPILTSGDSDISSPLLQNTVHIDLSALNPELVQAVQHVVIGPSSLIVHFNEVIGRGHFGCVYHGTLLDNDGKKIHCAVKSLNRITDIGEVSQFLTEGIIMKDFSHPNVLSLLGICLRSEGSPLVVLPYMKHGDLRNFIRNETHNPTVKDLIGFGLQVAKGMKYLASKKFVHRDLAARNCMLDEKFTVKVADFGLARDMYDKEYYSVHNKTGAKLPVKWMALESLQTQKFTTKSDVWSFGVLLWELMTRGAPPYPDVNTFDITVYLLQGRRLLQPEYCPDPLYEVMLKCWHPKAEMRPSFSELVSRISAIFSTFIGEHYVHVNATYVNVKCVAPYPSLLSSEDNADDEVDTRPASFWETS
T2 sequence (P08581 25-1390): as above
T3 sequence (P16056 25-931 limits assumed): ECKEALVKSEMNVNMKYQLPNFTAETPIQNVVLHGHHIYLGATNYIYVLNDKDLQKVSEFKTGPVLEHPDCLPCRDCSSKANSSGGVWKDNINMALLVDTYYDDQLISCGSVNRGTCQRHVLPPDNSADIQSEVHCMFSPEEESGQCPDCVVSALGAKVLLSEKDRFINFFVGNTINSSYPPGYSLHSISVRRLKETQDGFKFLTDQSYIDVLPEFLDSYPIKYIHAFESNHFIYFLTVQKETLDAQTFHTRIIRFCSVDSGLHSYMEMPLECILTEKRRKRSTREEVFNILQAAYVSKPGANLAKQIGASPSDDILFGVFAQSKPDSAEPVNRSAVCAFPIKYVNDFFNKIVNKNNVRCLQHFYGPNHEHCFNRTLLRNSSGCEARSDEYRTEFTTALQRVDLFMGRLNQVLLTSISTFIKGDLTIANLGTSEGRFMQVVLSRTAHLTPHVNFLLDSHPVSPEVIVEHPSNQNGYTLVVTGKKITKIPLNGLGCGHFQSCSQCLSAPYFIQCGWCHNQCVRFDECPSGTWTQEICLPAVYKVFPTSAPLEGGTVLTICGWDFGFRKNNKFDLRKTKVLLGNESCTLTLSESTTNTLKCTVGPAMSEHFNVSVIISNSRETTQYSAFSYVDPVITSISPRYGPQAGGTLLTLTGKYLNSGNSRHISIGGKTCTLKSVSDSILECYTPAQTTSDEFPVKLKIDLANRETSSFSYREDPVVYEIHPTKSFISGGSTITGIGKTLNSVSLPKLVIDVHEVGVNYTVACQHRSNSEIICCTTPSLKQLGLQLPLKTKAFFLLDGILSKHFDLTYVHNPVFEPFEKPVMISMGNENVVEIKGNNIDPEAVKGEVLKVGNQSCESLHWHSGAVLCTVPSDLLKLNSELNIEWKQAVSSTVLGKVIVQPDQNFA

With TLQWNQS (Artificial Seuqence) [TLQ*], the “change of QQT*-Cy5.5 fluorescence intensity on addition of unlabeled peptide” value in the test with cMet (HT29 cells) [1] is recorded as “no significant change”.

Consider “TLQ*-Cy5.5: scrambled control sequence TLQWNQS (SEQ ID NO:3) labeled with Cy5.5 via GGGSK linker (TLQWNQSGGGS-{K(Cy5.5)-NH2})”, for which, in test [2], the “NIR fluorescence image of flat lesion” value is reported as “little signal; also recorded: minimal signal” and the “NIR fluorescence image of polyp” value was “minimal signal”. Further, the “intensity reduction with knockdown of cMet” value in the test with cMet [3] (HT29 siCL versus sicMet) stood at 0.96 fold. Moreover, in the test with cMet [3] (HT29 transfected with siCL non-targeting siRNA, confocal microscopy, 5 μM peptide), the “binding to surface of control HT29 cells” value is listed as “minimal binding”. Besides, the “fluorescence intensity / binding with HT29 knockdown cells” value with cMet [3] (HT29 transfected with sicMet-targeting siRNA, confocal microscopy) is “little signal; also recorded: little binding”. In the test with cMet [4], the “binding to surface of S114 cells (cMet+)” value is reported as “minimal binding” and the “signal / binding to NIH3T3 cells (cMet−)” value is listed as “little binding”. Also, the “mean intensity HT29 versus SW480 cells” value in the test with cMet [5] was determined as 0.85 fold change. In addition, in the test with cMet [5] (setting [9]), the “binding to surface of HT29 cells (cMet+)” value was “minimal binding” and the “signal / binding to SW480 cells (cMet−)” value is given as “little binding”. In test [6], the “fluorescence signal from human SSA organoid in vivo” value is listed as “minimal signal; also recorded: little signal”, the “fluorescence signal from human adenoma organoid in vivo” value is reported as “little signal; also recorded: minimal signal” and the “fluorescence signal from human normal organoid in vivo” value was “little signal; also recorded: minimal signal”.

Regarding QQTNWSL [QQT*], the “change of QQT*-Cy5.5 fluorescence intensity on addition of unlabeled peptide” value with cMet (HT29 cells) [1] is on record as “decrease significantly; also recorded: significant decrease”. Moreover, the “change of binding to HT29 cells with addition of HGF” value with cMet (HT29 cells) [7] is “no competition”. Besides, the “phosphorylation of cMet and downstream AKT and ERK1/2” value in test [8] was “no change in phosphorylation”. Moreover, the “binding to mouse cMet-ECD, Western blot band” value with mouse cMet-ECD is “strong band”.
